Values of other authors, collected in publication PMC3674867.

Molecular target: caspase-3 (Homo sapiens) (UniProt P42574)
Assay: solid phase binding assay

UniProt P42574, sequence (P42574 176-277): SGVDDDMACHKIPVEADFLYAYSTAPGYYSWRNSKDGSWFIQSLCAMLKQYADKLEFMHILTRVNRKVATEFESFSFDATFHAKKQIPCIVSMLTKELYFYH

PAI-1 (from UniProt P05121)
Kd: 3 nM
